Source: patent publication US20090297470

What was measured:
Diprotin A (Ile-Pro-Ile) = target: T1, Diprotin A (Ile-Pro-Ile)
T1 chain: IPI

[1] = target: recombinant SDF-1α (1-68), full length, 7.97 kDa

B1: CD26/dipeptidylpeptidase IV (DPP-IV), endogenous enzyme in heart lysates of wild type C57BL/6 mice (protein)
chain: MKTPWKVLLGLLGVAALVTIITVPIVLLSKDEAAADSRRTYSLADYLKSTFRVKSYSLWWVSDFEYLYKQENNILLLNAEHGNSSIFLENSTFESFGYHSVSPDRLFVLLEYNYVKQWRHSYTASYNIYDVNKRQLITEEKIPNNTQWITWSPEGHKLAYVWKNDIYVKVEPHLPSHRITSTGEENVIYNGITDWVYEEEVFGAYSALWWSPNNTFLAYAQFNDTGVPLIEYSFYSDESLQYPKTVWIPYPKAGAVNPTVKFFIVNIDSLSSSSSAAPIQIPAPASVARGDHYLCDVVWATEERISLQWLRRIQNYSVMAICDYDKINLTWNCPSEQQHVEMSTTGWVGRFRPAEPHFTSDGSSFYKIISDKDGYKHICHFPKDKKDCTFITKGAWEVISIEALTSDYLYYISNQYKEMPGGRNLYKIQLTDHTNVKCLSCDLNPERCQYYAVSFSKEAKYYQLGCWGPGLPLYTLHRSTDHKELRVLEDNSALDRMLQDVQMPSKKLDFIVLNETRFWYQMILPPHFDKSKKYPLLLDVYAGPCSQKADASFRLNWATYLASTENIIVASFDGRGSGYQGDKIMHAINRRLGTLEVEDQIEAARQFVKMGFVDSKRVAIWGWSYGGYVTSMVLGSGSGVFKCGIAVAPVSRWEYYDSVYTERYMGLPIPEDNLDHYRNSTVMSRAEHFKQVEYLLIHGTADDNVHFQQSAQISKALVDAGVDFQAMWYTDEDHGIASSTAHQHIYSHMSHFLQQCFSLH
proteolytic DPP-IV activity (H-Gly-Pro-AMC) in myocardium and serum 2 days after MI (Diprotin A (Ile-Pro-Ile)): Combined application of G-CSF and Diprotin A in wt mice ("G-CSF-DipA mice") lead to a decreased DPP-IV activity after MI only in the myocardium but not in the serum | mass spectrometry of recombinant SDF-1 incubated with heart lysates (cleavage product peak) [1]: lysates derived from wt animals also showed high abundance of a second peak at 7.748 kDa corresponding to N-terminal cleavage of SDF-1α by DPP-IV
